Earlier results on one substance are cited in article PMC3145095.

The series concerns the target CD8αα (Mus musculus) (UniProt P01731).
UniProt P01731, sequence (P01731 28-196): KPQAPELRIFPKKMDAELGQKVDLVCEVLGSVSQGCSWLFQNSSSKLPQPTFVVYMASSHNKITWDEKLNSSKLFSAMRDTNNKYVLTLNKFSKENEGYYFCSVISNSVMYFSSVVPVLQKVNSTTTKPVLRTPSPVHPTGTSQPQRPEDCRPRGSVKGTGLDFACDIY

On to “Thymus leukaemia antigen (TL) (from UniProt P14432)”, for which the Kd (in general, a measure of binding affinity in units of concentration) is 12 µM.
